Results taken from IntAct's records for PubMed 18086875.

How the values were obtained:
fak2_human PTK2B [1] = target: fak2_human PTK2B (UniProt Q14289)
pak1_human PAK1 = pak1_human PAK1 (UniProt Q13153)
fak1_human PTK2 = fak1_human PTK2 (UniProt Q05397)
fak2_human PTK2B [2] = target: fak2_human PTK2B (UniProt Q14289); remark: listed apart in the source

Chain of fak2_human PTK2B (Q14289 whole entry, looked up): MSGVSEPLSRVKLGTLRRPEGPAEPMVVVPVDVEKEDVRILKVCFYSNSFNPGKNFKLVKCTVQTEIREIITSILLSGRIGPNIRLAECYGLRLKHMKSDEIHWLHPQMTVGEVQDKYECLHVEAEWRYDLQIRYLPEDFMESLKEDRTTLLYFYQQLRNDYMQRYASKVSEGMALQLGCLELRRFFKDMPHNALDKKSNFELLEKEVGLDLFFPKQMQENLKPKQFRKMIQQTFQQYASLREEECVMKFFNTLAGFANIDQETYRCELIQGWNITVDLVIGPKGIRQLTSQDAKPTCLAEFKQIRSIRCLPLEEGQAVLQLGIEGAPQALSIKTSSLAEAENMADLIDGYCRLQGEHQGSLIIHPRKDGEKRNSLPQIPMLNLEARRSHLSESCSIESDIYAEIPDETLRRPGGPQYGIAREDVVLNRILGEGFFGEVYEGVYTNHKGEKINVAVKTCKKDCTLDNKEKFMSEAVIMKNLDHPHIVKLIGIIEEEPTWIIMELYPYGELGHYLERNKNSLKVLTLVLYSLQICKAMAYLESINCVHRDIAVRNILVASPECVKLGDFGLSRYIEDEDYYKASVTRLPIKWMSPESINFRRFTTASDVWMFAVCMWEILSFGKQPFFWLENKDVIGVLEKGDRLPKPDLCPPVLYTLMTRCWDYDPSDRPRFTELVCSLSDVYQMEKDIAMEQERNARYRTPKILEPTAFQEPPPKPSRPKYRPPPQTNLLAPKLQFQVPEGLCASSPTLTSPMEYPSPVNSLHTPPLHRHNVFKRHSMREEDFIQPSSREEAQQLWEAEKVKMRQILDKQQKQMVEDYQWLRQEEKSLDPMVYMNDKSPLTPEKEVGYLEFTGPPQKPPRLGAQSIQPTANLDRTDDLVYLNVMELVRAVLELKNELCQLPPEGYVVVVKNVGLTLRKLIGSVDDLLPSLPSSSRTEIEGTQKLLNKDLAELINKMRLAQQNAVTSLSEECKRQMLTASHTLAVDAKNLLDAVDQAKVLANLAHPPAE
Chain of fak1_human PTK2 (Q05397 whole entry, looked up): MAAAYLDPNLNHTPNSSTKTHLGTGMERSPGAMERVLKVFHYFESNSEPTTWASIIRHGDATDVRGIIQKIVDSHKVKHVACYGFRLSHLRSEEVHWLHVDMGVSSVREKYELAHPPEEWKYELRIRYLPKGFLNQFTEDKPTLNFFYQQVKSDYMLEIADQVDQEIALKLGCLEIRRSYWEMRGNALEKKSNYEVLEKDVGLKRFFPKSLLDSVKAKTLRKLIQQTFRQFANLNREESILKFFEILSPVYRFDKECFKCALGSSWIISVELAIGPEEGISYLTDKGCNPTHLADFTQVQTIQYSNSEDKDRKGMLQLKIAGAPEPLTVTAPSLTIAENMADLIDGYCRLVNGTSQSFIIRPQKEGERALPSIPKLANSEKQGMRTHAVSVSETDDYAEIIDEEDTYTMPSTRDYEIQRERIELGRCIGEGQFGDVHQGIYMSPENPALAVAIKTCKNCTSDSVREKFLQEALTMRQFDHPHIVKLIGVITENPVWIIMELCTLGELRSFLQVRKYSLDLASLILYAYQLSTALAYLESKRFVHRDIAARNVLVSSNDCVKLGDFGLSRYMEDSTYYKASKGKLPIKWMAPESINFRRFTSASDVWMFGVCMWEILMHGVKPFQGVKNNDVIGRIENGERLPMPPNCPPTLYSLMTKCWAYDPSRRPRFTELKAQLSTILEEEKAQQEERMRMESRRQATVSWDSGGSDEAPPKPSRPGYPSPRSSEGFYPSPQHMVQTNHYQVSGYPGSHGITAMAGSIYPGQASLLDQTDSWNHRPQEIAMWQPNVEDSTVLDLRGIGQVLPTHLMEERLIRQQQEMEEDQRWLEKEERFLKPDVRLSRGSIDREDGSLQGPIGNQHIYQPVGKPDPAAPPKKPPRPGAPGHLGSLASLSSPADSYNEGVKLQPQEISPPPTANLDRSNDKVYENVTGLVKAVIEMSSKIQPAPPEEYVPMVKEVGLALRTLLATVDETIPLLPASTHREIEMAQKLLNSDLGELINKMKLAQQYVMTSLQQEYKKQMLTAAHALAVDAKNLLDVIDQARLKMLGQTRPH
Chain of Rho-related GTP-binding protein RhoU (Homo sapiens), Q7L0Q8 F86C (Q7L0Q8 whole entry F86C): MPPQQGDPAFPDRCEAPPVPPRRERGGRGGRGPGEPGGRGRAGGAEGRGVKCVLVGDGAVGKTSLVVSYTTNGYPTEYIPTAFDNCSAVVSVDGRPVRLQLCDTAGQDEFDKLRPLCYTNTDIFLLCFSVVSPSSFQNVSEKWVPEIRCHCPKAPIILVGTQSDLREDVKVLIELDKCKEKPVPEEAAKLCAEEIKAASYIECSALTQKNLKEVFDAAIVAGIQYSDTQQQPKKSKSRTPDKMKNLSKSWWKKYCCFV
Chain of pak1_human PAK1 (Q13153 whole entry): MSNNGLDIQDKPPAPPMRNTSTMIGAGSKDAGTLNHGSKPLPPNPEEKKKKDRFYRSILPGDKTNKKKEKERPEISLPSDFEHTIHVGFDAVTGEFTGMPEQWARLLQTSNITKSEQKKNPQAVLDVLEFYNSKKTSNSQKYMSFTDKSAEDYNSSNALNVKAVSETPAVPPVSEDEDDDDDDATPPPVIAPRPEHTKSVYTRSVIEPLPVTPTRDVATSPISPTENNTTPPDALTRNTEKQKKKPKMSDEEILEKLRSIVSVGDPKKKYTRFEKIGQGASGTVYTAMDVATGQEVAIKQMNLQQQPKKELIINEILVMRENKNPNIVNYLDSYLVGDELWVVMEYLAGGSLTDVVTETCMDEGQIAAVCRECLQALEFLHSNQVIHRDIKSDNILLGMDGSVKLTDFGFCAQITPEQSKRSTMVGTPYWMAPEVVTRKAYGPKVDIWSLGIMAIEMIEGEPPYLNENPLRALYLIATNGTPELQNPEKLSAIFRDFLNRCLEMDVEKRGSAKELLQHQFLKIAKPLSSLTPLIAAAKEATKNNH

| effect of a mutation on the interaction (fak2_human PTK2B [1]) | effect of a mutation on the interaction (pak1_human PAK1) | effect of a mutation on the interaction (fak1_human PTK2) | effect of a mutation on the interaction (fak2_human PTK2B [2]) | Substance |
| --- | --- | --- | --- | --- |
| disrupting interaction | decreasing interaction | – | – | Rho-related GTP-binding protein RhoU (Homo sapiens), Q7L0Q8 P80G |
| – | – | decreasing interaction | – | Rho-related GTP-binding protein RhoU (Homo sapiens), Q7L0Q8 Q107L |
| disrupting interaction | decreasing interaction | – | – | Rho-related GTP-binding protein RhoU (Homo sapiens), Q7L0Q8 F86C |
| disrupting interaction | – | – | – | Rho-related GTP-binding protein RhoU (Homo sapiens), Q7L0Q8 F83G |
| – | – | decreasing interaction | disrupting interaction | Rho-related GTP-binding protein RhoU (Homo sapiens), Q7L0Q8 T63N |
